Experimental data published in PMC4683255, “Evidence for a Functional O-Linked N-Acetylglucosamine (O-GlcNAc) System in the Thermophilic Bacterium Thermobaculum terrenum*” (The Journal of Biological Chemistry, 2015).
Each block holds one molecule with its values, some of them ahead of it. Where no end group is shown, it is not given here. The star is where a group is joined. βGlcNAc = CC(=O)N[C@@H]1[C@@H](O)[C@H](O)[C@@H](CO)O[C@H]1*

Assays:
TtOGA = biological target: T1, TtOGA (Thermobaculum terrenum, UniProt D1CDN2); assay: fluorogenic 4MU-GlcNAc hydrolysis; Ki from IC50 by Cheng-Prusoff; type: biochemical; conditions: 4MU-GlcNAc 90 uM (= Km); 4 pM enzyme; 1 min preincubation
T1 construct: gene Tter_0116; full-length, N-terminal GST fusion from E. coli BL21, GST cut off with PreScission protease (pGEX-6P-1)

TtOGT = biological target: T2, TtOGT (Thermobaculum terrenum, UniProt D1CIY5, K341M); assay: X-ray crystal structure of complex, […] A; type: binding; conditions: co-crystallized with 10 mM UDP; active site; mutant stated in the crystallization methods; PDB code assigned by reader
T2 construct: gene Tter_2822; full-length, N-terminal GST fusion from E. coli BL21, GST cut off with PreScission protease (pGEX-6P-1)

[1] = biological target: T3, TtOGA D120N (Thermobaculum terrenum O-GlcNAcase orthologue, product of gene Tter_0116, catalytic acid mutant) (Thermobaculum terrenum strain YNP1, UniProt D1CDN2 1-474, D120N); assay: crystal structure; co-crystallised: 40 mg/ml TtOGA D120N with 7.2 mM hTab1-O-GlcNAc peptide in 50 mM HEPES pH 7.5, 250 mM NaCl, 0.5 mM TCEP; sitting drops, 38% PEG 4000, 400 mM sodium acetate, 0.1 M Tris-HCl pH 8.5, 22 °C; 2.06 Å; conditions: both partners purified
T3 construct: O-GlcNAcase (GH84) orthologue TtOGA of Thermobaculum terrenum YNP1, gene Tter_0116, full length, cloned into pGEX-6P-1; GST removed with PreScission protease; also called D120N mutant of TtOGA; Ttoga product; source: E. coli BL21, purified (GSH-Sepharose, PreScission cleavage, Superdex 75); not shown: GST, N-terminal, cleaved
T3 sequence (looked up): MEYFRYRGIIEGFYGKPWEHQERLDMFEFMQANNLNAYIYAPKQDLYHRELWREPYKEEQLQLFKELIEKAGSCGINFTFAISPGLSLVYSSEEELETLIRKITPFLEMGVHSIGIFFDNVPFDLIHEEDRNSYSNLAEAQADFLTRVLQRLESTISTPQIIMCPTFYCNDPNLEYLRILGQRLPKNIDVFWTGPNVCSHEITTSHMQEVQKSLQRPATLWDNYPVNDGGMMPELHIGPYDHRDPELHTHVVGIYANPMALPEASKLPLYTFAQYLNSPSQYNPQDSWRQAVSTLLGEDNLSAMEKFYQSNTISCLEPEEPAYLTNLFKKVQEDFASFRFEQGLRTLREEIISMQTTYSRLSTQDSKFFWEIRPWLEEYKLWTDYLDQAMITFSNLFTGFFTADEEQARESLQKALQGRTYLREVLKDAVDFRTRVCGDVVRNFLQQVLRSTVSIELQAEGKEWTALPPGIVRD

[2] = substrate: CC(=O)N[C@H]1[C@H](Oc2ccc3c(C)cc(=O)oc3c2)O[C@H](CO)[C@@H](O)[C@@H]1O; assay: fluorescence of released 4-methylumbelliferone, Michaelis-Menten fit; type: biochemical, Thermobaculum terrenum; conditions: TBS, 0.1 mg/ml BSA, 2% DMSO; 0.2 nM enzyme

T2 sequence (D1CIY5 entry or part of it K341M): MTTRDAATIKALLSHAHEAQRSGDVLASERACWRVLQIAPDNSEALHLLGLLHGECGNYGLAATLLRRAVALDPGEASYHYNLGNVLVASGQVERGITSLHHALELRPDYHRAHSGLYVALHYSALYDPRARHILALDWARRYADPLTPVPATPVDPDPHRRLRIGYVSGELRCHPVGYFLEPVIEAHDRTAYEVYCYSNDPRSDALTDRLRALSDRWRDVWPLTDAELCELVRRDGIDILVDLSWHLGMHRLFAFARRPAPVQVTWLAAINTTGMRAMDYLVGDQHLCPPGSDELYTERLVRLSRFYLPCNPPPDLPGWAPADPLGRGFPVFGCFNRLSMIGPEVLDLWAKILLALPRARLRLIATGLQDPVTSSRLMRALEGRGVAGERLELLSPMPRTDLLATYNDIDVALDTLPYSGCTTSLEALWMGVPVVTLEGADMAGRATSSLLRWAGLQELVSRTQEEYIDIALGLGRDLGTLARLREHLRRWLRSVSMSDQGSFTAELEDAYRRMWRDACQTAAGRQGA

Ki (TtOGA): 18 nM
Molecule: C=CC=CC(=O)N[C@H]1c2nc(CCc3ccccc3)cn2[C@H](CO)[C@@H](O)[C@@H]1O [GlcNAcstatin G]

Molecule: O=c1ccn([C@@H]2O[C@H](COP(=O)(O)OP(=O)(O)O)[C@@H](O)[C@H]2O)c(=O)[nH]1 [UDP]
X-ray crystal structure of complex, 2.80 A (TtOGT): TtOGT was co-crystallized with the product of O-GlcNAc transfer, UDP

binding result [1]: binds
B1: hTab1-O-GlcNAc peptide (392-VPYgSSAQ-398, gS is GlcNAcylated serine) (peptide)
peptide: VPYS(βGlcNAc)SAQ
notes: probably synthetic; also called hTab1 glycopeptide; glycopeptide derived from the validated hTab1 glycosylation site

B2: TtOGA (Thermobaculum terrenum ATCC BAA-798) (protein)
chain: MEYFRYRGIIEGFYGKPWEHQERLDMFEFMQANNLNAYIYAPKQDLYHRELWREPYKEEQLQLFKELIEKAGSCGINFTFAISPGLSLVYSSEEELETLIRKITPFLEMGVHSIGIFFDDVPFDLIHEEDRNSYSNLAEAQADFLTRVLQRLESTISTPQIIMCPTFYCNDPNLEYLRILGQRLPKNIDVFWTGPNVCSHEITTSHMQEVQKSLQRPATLWDNYPVNDGGMMPELHIGPYDHRDPELHTHVVGIYANPMALPEASKLPLYTFAQYLNSPSQYNPQDSWRQAVSTLLGEDNLSAMEKFYQSNTISCLEPEEPAYLTNLFKKVQEDFASFRFEQGLRTLREEIISMQTTYSRLSTQDSKFFWEIRPWLEEYKLWTDYLDQAMITFSNLFTGFFTADEEQARESLQKALQGRTYLREVLKDAVDFRTRVCGDVVRNFLQQVLRSTVSIELQAEGKEWTALPPGIVRD
notes: full-length, N-terminal GST fusion from E. coli BL21, GST cut off with PreScission protease (pGEX-6P-1)
Km [2]: 90 µM
kcat [2]: 180 s⁻¹
